T1: recombinant hMCAM-His (human, UniProt P43121 24-559)
T1 construct: not shown: His tag
T1 chain: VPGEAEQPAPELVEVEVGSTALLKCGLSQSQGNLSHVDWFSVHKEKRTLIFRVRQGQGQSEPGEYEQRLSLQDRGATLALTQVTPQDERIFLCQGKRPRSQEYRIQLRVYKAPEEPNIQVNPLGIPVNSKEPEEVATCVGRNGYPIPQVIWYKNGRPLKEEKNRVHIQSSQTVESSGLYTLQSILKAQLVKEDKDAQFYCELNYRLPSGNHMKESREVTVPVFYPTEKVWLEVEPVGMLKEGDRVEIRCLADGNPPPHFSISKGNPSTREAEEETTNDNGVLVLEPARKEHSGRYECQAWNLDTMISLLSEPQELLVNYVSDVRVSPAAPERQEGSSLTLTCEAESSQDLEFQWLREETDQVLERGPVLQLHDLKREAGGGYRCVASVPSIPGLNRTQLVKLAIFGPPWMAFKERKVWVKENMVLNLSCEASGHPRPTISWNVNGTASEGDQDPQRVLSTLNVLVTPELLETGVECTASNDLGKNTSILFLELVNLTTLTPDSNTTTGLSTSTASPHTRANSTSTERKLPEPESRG

T2: human MCAM (melanoma cell adhesion molecule) expressed on transfected CHO cells (human, UniProt P43121 24-646)
T2 construct: also called hMCAM; CD146
T2 chain: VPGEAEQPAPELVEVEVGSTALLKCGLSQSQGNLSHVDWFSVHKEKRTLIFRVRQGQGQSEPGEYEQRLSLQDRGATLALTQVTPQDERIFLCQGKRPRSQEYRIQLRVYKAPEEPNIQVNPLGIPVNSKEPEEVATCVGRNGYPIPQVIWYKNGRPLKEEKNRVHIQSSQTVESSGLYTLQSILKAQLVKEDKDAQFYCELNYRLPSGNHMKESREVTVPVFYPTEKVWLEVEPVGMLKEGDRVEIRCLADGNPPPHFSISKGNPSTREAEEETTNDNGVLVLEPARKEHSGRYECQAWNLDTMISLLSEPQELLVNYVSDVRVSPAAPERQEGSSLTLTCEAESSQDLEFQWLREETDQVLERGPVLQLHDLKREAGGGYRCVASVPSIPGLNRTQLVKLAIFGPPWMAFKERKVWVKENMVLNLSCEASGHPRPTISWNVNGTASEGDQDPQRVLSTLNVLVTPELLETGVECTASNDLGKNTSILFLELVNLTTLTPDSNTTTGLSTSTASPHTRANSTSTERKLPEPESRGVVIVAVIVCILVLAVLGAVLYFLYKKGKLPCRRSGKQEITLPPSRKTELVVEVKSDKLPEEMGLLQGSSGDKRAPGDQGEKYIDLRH


Tests used:
recombinant hMCAM-His [1] = target: T1, recombinant hMCAM-His; assay: ForteBio Octet Red, hMCAM-His analyte; Expt. #1; vs rodent 2107
Experimental: (§1) The affinities were measured using the ForteBio Octet Red. Anti-human Fc sensors were used to capture the humanized antibodies, and several concentrations of hMCAMHis analyte were used to determine the affinity using a 1:1 fitting model.

recombinant hMCAM-His [2] = target: T1, recombinant hMCAM-His; assay: summary of ForteBio and competitive ELISA on hMCAM-His; vs rodent 2107
Experimental: (§2) ELISA plates were coated with recombinant hMCAM-His, and blocked with casein buffer to prevent non-specific binding. Biotinylated rodent or chimeric antibody was added at a subsaturating concentration, in the presence or absence of 3× increasing concentrations of unlabeled competitor (humanized antibody, rodent, or chimeric). After washing to remove unbound antibody, streptavidin HRP was added to allow detection of the biotinylated antibody. The ELISA was developed with TMB substrate and the OD450 was measured. The IC50 of the unlabeled competitor was determined using the GraphPad Prism5 software.
as §1

[3] = target: T2, human MCAM (melanoma cell adhesion …); assay: summary of laminin blocking assay on hMCAM CHO cells, competitor laminin 411; vs rodent 2107
Experimental: (§3) Following incubation for 30-45 minutes, the cells were washed and anti-laminin conjugated to AF650 (NovusBio) was added to detect the bound laminin. The cells were run on a flow cytometer to measure the laminin binding signal.

recombinant hMCAM-His [4] = target: T1, recombinant hMCAM-His; assay: competitive ELISA on hMCAM-His, competitor biotinylated rodent or chimeric 2107; Expt. #1; vs rodent 2107
Experimental: as §2

recombinant hMCAM-His [5] = target: T1, recombinant hMCAM-His; assay: summary of ForteBio, hMCAM-His; vs rodent 2120
Experimental: as §1

recombinant hMCAM-His [6] = target: T1, recombinant hMCAM-His; assay: ForteBio Octet Red, hMCAM-His analyte; Expt. #1; vs rodent 2120
Experimental: as §1

recombinant hMCAM-His [7] = target: T1, recombinant hMCAM-His; assay: competitive ELISA on hMCAM-His, competitor biotinylated rodent or chimeric 2120; Expt. #1; vs rodent 2120
Experimental: as §2

recombinant hMCAM-His [8] = target: T1, recombinant hMCAM-His; assay: ForteBio Octet Red, hMCAM-His analyte; Expt. #2; vs rodent 1749
Experimental: as §1

recombinant hMCAM-His [9] = target: T1, recombinant hMCAM-His; assay: ForteBio Octet Red, hMCAM-His analyte; Forte column 1; vs rodent 1749
Experimental: as §1

[10] = target: T2, human MCAM (melanoma cell adhesion …); assay: laminin/FACS on hMCAM CHO cells, competitor laminin 411; Expt#1; vs rodent 1749
Experimental: as §3

[11] = target: T2, human MCAM (melanoma cell adhesion …); assay: laminin/FACS on hMCAM CHO cells, competitor laminin 411; Expt#2; vs rodent 1749
Experimental: as §3

recombinant hMCAM-His [12] = target: T1, recombinant hMCAM-His; assay: competitive ELISA on hMCAM-His, competitor biotinylated rodent or chimeric 1749; Expt. #1; vs rodent 1749
Experimental: as §2

recombinant hMCAM-His [13] = target: T1, recombinant hMCAM-His; assay: competitive ELISA on hMCAM-His, competitor biotinylated rodent or chimeric 1749; Expt. #2; vs rodent 1749
Experimental: as §2

[14] = target: T2, human MCAM (melanoma cell adhesion …); assay: laminin/FACS blocking assay, % inhibition of laminin 411 binding to hMCAM-expressing CHO cells against antibody concentration; blocked ligand: laminin 411
Experimental: as §3

recombinant hMCAM-His [15] = target: T1, recombinant hMCAM-His; assay: ForteBio Octet Red, hMCAM-His analyte; Expt. #1; vs rodent 1749
Experimental: as §1

recombinant hMCAM-His [16] = target: T1, recombinant hMCAM-His; assay: summary of ForteBio and competitive ELISA on hMCAM-His; vs rodent 1749
Experimental: as §2, §1

[17] = target: T2, human MCAM (melanoma cell adhesion …); assay: summary of laminin blocking assay on hMCAM CHO cells, competitor laminin 411; vs rodent 1749
Experimental: as §3

recombinant hMCAM-His [18] = target: T1, recombinant hMCAM-His; assay: competitive ELISA on hMCAM-His, competitor biotinylated rodent or chimeric 1749; vs rodent 1749

Row | Binder | fold over rodent (Forte affinity) (recombinant hMCAM-His [1]) | fold reduction in affinity compared to the rodent (recombinant hMCAM-His [2]) | fold reduction in potency compared to the rodent [3] | fold over rodent (competitive ELISA) (recombinant hMCAM-His [4]) | fold reduction in affinity as measured by ForteBio (recombinant hMCAM-His [5]) | fold over rodent (Forte affinity) (recombinant hMCAM-His [6]) | fold over rodent (competitive ELISA) (recombinant hMCAM-His [7]) | fold over rodent (Forte affinity) (recombinant hMCAM-His [8]) | fold over rodent (Forte affinity) (recombinant hMCAM-His [9]) | fold over rodent (blocking, laminin/FACS) [10] | fold over rodent (blocking, laminin/FACS) [11] | fold over rodent (competitive ELISA) (recombinant hMCAM-His [12]) | fold over rodent (competitive ELISA) (recombinant hMCAM-His [13]) | IC50 (read off the curve) [14] | fold over rodent (Forte affinity) (recombinant hMCAM-His [15]) | fold reduction in affinity compared to the rodent (recombinant hMCAM-His [16]) | fold reduction in potency compared to the rodent [17] | fold over rodent (competitive ELISA) (recombinant hMCAM-His [18])
1 | chimeric 1749 (antibody, V domains shown) VH: DVKLVESGGDLVKPGGSLKLSCAASGFTFSSYIMSWVRQTPEKRLEWVATISSGGSSTYYPDSVKGRFTISRDNAKNTLYLQMSSLKSEDTAMYYCTRDDDYDVKVFAYWGQGTLVTVSA VL: DIVMSQSPSSLAVSAGEKVTMNCKSSRSLLNSRIRKNYLAWYQQKPGQSPKLLIYWASTRESGVPDRFTGSGSGTDFTLTISSVQAEDLAVYYCKQSYNLLTFGAGTKLELK | – | – | – | – | – | – | – | 0.79 fold | 0.6 fold | 1.4 fold | 1.4 fold | 0.81 fold | 0.97 fold | ~0.5 µg/mL | – | – | – | –
2 | h1749VH2 + h1749VL2 (antibody, human IgG1, V domains shown, also called humanized 1749 conservative VH and VL) VH: EVQLVESGGGLVQPGGSLRLSCAASGFTFSSYIMSWVRQAPGKRLEWVATISSGGSSTYYPDSVKGRFTISRDNAKNSLYLQMNSLRAEDTAVYYCTRDDDYDVKVFAYWGQGTMVTVSS VL: DIVMTQSPDSLAVSLGERATINCKSSRSLLNSRIRKNYLAWYQQKPGQPPKLLIYWASTRESGVPDRFTGSGSGTDFTLTISSLQAEDVAVYYCKQSYNLLTFGQGTKVEIK | – | – | – | – | – | – | – | 1.09 fold | 0.7 fold | 1.8 fold | 1.7 fold | 1.28 fold | 1.46 fold | ~0.4 µg/mL | 0.73 fold | < 2 fold | < 2 fold | 1.1 fold
3 | h1749VH1 + h1749VL1 (antibody, human IgG1, V domains shown, also called humanized 1749 standard VH and VL) VH: EVQLVESGGGLVQPGGSLRLSCAASGFTFSSYIMSWVRQAPGKGLEWVATISSGGSSTYYPDSVKGRFTISRDNAKNSLYLQMNSLRAEDTAVYYCTRDDDYDVKVFAYWGQGTMVTVSS VL: DIVMTQSPDSLAVSLGERATINCKSSRSLLNSRIRKNYLAWYQQKPGQPPKLLIYWASTRESGVPDRFSGSGSGTDFTLTISSLQAEDVAVYYCKQSYNLLTFGQGTKVEIK | – | – | – | – | – | – | – | 2.41 fold | 2.5 fold | 1.4 fold | 1.4 fold | 1.26 fold | 1.35 fold | – | 2.5 fold | < 2 fold | < 2 fold | 1 fold

Next, values leading:

Row | fold over rodent (Forte affinity) (recombinant hMCAM-His [1]) | fold reduction in affinity compared to the rodent (recombinant hMCAM-His [2]) | fold reduction in potency compared to the rodent [3] | fold over rodent (competitive ELISA) (recombinant hMCAM-His [4]) | fold reduction in affinity as measured by ForteBio (recombinant hMCAM-His [5]) | fold over rodent (Forte affinity) (recombinant hMCAM-His [6]) | fold over rodent (competitive ELISA) (recombinant hMCAM-His [7]) | fold over rodent (Forte affinity) (recombinant hMCAM-His [8]) | fold over rodent (Forte affinity) (recombinant hMCAM-His [9]) | fold over rodent (blocking, laminin/FACS) [10] | fold over rodent (blocking, laminin/FACS) [11] | fold over rodent (competitive ELISA) (recombinant hMCAM-His [12]) | fold over rodent (competitive ELISA) (recombinant hMCAM-His [13]) | IC50 (read off the curve) [14] | fold over rodent (Forte affinity) (recombinant hMCAM-His [15]) | fold reduction in affinity compared to the rodent (recombinant hMCAM-His [16]) | fold reduction in potency compared to the rodent [17] | fold over rodent (competitive ELISA) (recombinant hMCAM-His [18]) | Binder
4 | 2.54 fold | < 3 fold | < 3 fold | 1.62 fold | – | – | – | – | – | – | – | – | – | – | – | – | – | – | h2107_VH3 + h2107_VL2 (antibody, human IgG1, V domains shown, also called VH3VL2) VH: QVTLKESGPVLVKPTETLTLTCTVSGFSLTSNGVSWVRQPPGKALEWIAAISSGGSTYYNSAFKSRLTISRNTSKSQVVLTMTNMDPVDTATYYCARHRPFYFDYWGQGTLVTVSS VL: DIQMTQSPSSLSASVGDRVTITCKGSQNIYKSLAWFQLKPGKVPKLLIYDANSLQTGIPSRFSGSGSGTDFTLTISSLQPEDVATYYCQQYYSGYTFGGGTKVEIK
5 | – | – | – | – | > 5 fold | 16.1 fold | 3.47 fold | – | – | – | – | – | – | – | – | – | – | – | h2120_VH3 + h2120_VL3 (antibody, human IgG1, V domains shown) VH: QVTLKESGPVLVKPTETLTLTCTVSGFSLTSSGVSWVRQPPGKALEWIAAISSGGTTYYNSAFKSRLTISRDTSKSQVVLTMTNMDPVDTATYYCARRYGYGWYFDFWGQGTLVTVSS VL: DIQMTQSPSSLSASVGDRVTINCKASQNIYNSLAWYQQKPGKAPKVLIFNANSLQTGIPSRFSGSGSGTDFTLTISSLQPEDFATYYCQQFYSGYTFGQGTKLEIK
